According to US20030228371A1 (STASYS TECHNOLOGIES, published 2003):
Like-named read-outs stand apart in the source and are kept apart here. Square brackets hold non-standard residues; d marks the D form. Ends that are not written are not given here. * marks the point of attachment. 2Thi = N[C@@H](Cc1cccs1)C(=O)O; Nicotinoyl = O=C(c1cccnc1)*

What was measured:
[1] = target: T1, human angiotensin AT2 receptor (human, UniProt P50052 1-363)
T1 sequence (looked up): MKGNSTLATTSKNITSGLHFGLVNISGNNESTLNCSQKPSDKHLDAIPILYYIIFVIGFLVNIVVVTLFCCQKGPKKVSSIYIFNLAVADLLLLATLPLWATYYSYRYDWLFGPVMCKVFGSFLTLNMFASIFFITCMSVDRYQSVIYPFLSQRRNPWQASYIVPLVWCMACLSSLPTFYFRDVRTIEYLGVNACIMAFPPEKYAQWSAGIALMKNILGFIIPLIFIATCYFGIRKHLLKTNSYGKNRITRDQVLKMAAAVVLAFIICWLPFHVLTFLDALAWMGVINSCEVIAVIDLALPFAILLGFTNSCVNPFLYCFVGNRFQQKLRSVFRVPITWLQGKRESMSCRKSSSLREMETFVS

[2] = target: T1, human angiotensin AT2 receptor; remark: listed apart in the source
Bradykinin B1 = target: T2, Bradykinin B1; assay: receptor panel ligand-binding screen, FPAh at 10 µM
T2 sequence (P46663 whole entry, species assumed, looked up): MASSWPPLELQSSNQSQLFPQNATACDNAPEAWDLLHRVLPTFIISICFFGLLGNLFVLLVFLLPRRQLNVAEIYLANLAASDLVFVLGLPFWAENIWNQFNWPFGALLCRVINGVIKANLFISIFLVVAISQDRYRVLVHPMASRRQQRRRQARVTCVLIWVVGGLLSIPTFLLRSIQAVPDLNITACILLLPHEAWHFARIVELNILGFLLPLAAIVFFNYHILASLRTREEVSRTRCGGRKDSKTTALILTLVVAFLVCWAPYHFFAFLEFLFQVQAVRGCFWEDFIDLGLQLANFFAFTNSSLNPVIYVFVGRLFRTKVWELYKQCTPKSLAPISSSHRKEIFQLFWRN

Cholecystokinin = assay: as above
Estrogen ERa = assay: as above
Glutamate AMPA = assay: as above
[3] = target: Inositol Triphosphate IP3; assay: as above
Potassium Channel [Ka] = assay: as above
Serotonin 5-HT 2a = assay: as above
Chain of Serotonin 5-HT 2a (P28223 whole entry): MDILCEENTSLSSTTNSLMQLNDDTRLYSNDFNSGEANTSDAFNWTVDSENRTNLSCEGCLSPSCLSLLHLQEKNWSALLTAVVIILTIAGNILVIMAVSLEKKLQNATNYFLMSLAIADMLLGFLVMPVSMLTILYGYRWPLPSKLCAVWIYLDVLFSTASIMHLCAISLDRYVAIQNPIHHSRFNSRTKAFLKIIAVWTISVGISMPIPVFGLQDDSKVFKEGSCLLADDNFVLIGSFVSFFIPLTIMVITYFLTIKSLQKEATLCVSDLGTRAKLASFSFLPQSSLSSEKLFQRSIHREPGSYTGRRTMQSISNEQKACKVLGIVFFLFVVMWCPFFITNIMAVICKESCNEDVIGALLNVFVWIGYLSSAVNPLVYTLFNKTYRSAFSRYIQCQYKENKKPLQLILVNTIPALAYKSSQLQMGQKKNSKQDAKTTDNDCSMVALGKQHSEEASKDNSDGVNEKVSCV

[4] = target: T3, Thyrotropin Releasing Hormone; assay: as above
T3 sequence (P34981 whole entry, species assumed, looked up): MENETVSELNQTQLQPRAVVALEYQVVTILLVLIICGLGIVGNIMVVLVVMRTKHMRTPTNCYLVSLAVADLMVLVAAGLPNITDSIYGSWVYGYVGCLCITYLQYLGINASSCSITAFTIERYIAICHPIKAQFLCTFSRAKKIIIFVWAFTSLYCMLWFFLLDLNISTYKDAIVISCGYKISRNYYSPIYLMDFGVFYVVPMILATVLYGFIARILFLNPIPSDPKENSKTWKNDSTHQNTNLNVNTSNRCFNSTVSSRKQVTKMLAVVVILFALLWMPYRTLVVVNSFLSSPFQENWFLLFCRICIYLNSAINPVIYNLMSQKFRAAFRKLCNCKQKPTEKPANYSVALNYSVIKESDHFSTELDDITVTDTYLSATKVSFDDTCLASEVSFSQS

[5] = target: Vascular endothelial growth factor; assay: as above
[6] = target: T1, human angiotensin AT2 receptor; remark: listed apart in the source
Description: (§1) Compounds were screened at 10 μM. […] Biochem. Biophys. Res. Comm.

[7] = target: T4, human angiotensin AT2 receptor (human) (UniProt P50052)
T4 sequence (looked up): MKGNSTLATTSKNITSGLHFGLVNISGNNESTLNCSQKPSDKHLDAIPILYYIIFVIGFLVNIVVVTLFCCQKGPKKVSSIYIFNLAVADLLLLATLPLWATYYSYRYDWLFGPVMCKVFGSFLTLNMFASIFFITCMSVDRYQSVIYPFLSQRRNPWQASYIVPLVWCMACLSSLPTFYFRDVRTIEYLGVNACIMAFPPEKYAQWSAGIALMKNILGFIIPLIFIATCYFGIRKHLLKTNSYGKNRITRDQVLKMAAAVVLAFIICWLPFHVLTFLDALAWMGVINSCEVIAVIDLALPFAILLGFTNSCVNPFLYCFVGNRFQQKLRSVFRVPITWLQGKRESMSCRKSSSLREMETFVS

[8] = target: T1, human angiotensin AT2 receptor; assay: [125I]CGP-42112A binding to membranes of HeLa cells expressing human AT2 receptor
Description: as §1

Bradykinin (1-3) (peptide)
% Inhibition ATII receptor [1]: -2%

N-Admantanecarbonyl-DArg0-Hyp3, Thi5,8, DPhe7] Bradykinin (peptide)
% Inhibition ATII receptor [1]: 63%

Saralasin (peptide)
IC50 [2]: 0.28 nM | Ki [2]: 0.091 nM | nH [2]: 0.9

N-Admantaneacetyl-DArg0-Hyp3, Thi5,8,DPhe7] Bradykinin (peptide)
% Inhibition ATII receptor [1]: 61%

[Lys0-Hyp3] Bradykinin (peptide)
% Inhibition ATII receptor [1]: 13%

ADSGEGDFLAEGGGVR [human form of Fibrinopeptide-A]
% inhibited (ligand-receptor binding) (Bradykinin B1): 24% | % inhibited (ligand-receptor binding) (Cholecystokinin): 33% | % inhibited (ligand-receptor binding) (Estrogen ERa): 33% | % stimulated (ligand-receptor binding) (Glutamate AMPA): 30% | % inhibited (ligand-receptor binding) [3]: 33% | % inhibited (ligand-receptor binding) (Potassium Channel [Ka]): 25% | % stimulated (ligand-receptor binding) (Serotonin 5-HT 2a): 21% | % inhibited (ligand-receptor binding) [4]: 23% | % stimulated (ligand-receptor binding) [5]: 22%

PPGFSPFR [Bradykinin (2-9)]
% Inhibition ATII receptor [1]: -13%

XRPXGXSXXR (D-Arg at 0; Hyp at 3; Thi at 5; D-Igl at 7; Oic at 8 (bradykinin numbering)) [B9340]
% Inhibition ATII receptor [1]: 35%

XRPXGXSXXR (D-Arg at 0; Hyp at 3; Thi at 5; D-Tic at 7; Oic at 8 (bradykinin numbering)) [Hoe 140]
% Inhibition ATII receptor [1]: 29%

KRPPGFSPFR (also called VP048) [[Lys0] Bradykinin]
% Inhibition ATII receptor [6]: 29%

YRPPGFSPFR (also called VP051) [[Tyr0] Bradykinin]
% Inhibition ATII receptor [6]: 33%

KRPAGFSPFR (also called VP050) [Lys0-Ala3] Bradykinin]
% Inhibition ATII receptor [6]: 18%

RPPGFSPYR [[Tyr8] Bradykinin]
% Inhibition ATII receptor [7]: -1%

RPPGYSPFR (also called VP053) [Tyr5] Bradykinin]
% Inhibition ATII receptor [6]: 13%

RPPGFSP (also called VP060) [Bradykinin (1-7)]
% Inhibition ATII receptor [6]: 55%

RPPGFS[dF]FR [[DPhe7] Bradykinin]
% Inhibition ATII receptor [1]: 9%

PPGFSP [Bradykinin (2-7)]
% Inhibition ATII receptor [1]: -6%

RPPGF [Bradykinin (1-5)]
% Inhibition ATII receptor [1]: 1%

RPPGFS [Bradykinin (1-6)]
% Inhibition ATII receptor [1]: -12%

MKRPPGFSPFR (also called VP049) [Met-Lys0] Bradykinin]
% Inhibition ATII receptor [6]: 38%

XRPXGXSXXR (D-Arg at 0; Hyp at 3; Igl at 5; D-Igl at 7; Oic at 8 (bradykinin numbering)) [B9430]
% Inhibition ATII receptor [1]: 70%

B1: CGP-42112A (peptide)
peptide: Nicotinoyl-YKHPI-OH
modifications: not fully specified (residue 2)
notes: Modified peptide ligand of the AT2 receptor and radioligand of the assay; also called CPG42112A
Kd [8]: 0.012 nM | IC50 [6]: 0.024 nM | Ki [6]: 0.0078 nM | nH [6]: 1.1

RPPG[2Thi]S[dF][2Thi]R [[Thi5,8,DPhe7] Bradykinin]
% Inhibition ATII receptor [1]: 53%

KRPPGFSPL (also called VP041) [Lys-(Des-Arg9, Leu8)-Bradykinin]
% Inhibition ATII receptor [6]: 98%

ISRPPGFSPFR (also called VP054) [Ile-Ser0]-Bradykinin]
% Inhibition ATII receptor [6]: 29%
